According to US20230242871A1, “GENERATION OF PRIMORDIAL GERM CELLS AND METHODS OF USING THE SAME” (The Board of Trustees of the Leland Stanfor Junior …, priority 2020, published 2023):

System: NANOS3-mCherry hESCs
Test: PGC differentiation of NANOS3-mCherry hESCs, flow cytometry for NANOS3-mCherry fluorescent reporter expression
Format: cell-based, human
Excerpt: In the NANOS3-mCherry hESC line, a 2A-mCherry fluorescent reporter was inserted immediately downstream of the NANOS3 gene without disrupting its coding sequence (Irie et al., 2014). In the SOX17-GFP hESC line, a GFP fluorescent reporter was inserted immediately after the SOX17 start codon, thus functionally invalidating one SOX17 allele (Wang et al., 2011). In the NANOG-2A-YFP hESC line, Cas9 RNP/AAV6-based genome editing (Martin et al., 2019) was used to insert a 2A-iCaspase9-2A-YFP fluorescent reporter immediately downstream of the NANOG gene without disrupting the NANOG coding sequence.
hPSC differentiation into PGCs. Undifferentiated hPSCs were maintained in mTeSR1 + 1% penicillin/streptomycin and enzymatically passaged (Accutase, 1:8-1:12 split) for differentiation. After overnight recovery in mTeSR1 + Thiazovivin (ROCK inhibitor, 5 µM), the following morning, hPSCs were briefly washed (DMEM/F12) and differentiated into posterior epiblast for 12 hours (100 ng/mL Activin + 3 µM CHIR99021 + 10 µM Y-27632) in aRB27 basal media, which comprised Advanced RPMI 1640 medium supplemented with 1% B27 supplement, 0.1 mM non-essential amino acids (NEAA), 100 U/ml Penicillin + 0.1 mg/ml Streptomycin, and 2 mM L-Glutamine (Kobayashi et al., 2017). Subsequently, […], […], […], 100 ng/mL SCF, 50 ng/mL EGF, 1 µM XAV939, and 10 µM Y-27632 for 24 hours (all in aRB27 basal media). For comparison, published PGC differentiation protocols (Sasaki et al., 2015; Kobayashi et al., 2017) were performed as described previously.
Flow cytometry and fluorescence-activated cell sorting (FACS) for cell-surface marker expression. hPSCs or their differentiated derivatives were dissociated using TrypLE Express (Gibco), were washed off the plate with FACS buffer (PBS + 0.1% BSA fraction V [Gibco] + 1 mM EDTA [Gibco] + 1% penicillin/streptomycin [Gibco]) and were pelleted by centrifugation (5 mins, 4° C.). Subsequently, cell pellets were directly resuspended in FACS buffer containing pre-diluted primary antibodies (listed below), thoroughly triturated to ensure a single cell suspension, and primary antibody staining was conducted for 30 mins on ice. Afterwards, cells were washed with an excess of FACS buffer and pelleted again, and this was conducted one more time. Finally, washed cell pellets were resuspended in FACS buffer containing 1.1 µM DAPI (Biolegend), and were strained through a 35 µm filter. Flow cytometry and sorting was conducted on a BD FACSAria II (Stanford Stem Cell Institute FACS Core).

B1: BMP4: bone morphogenetic protein 4, UniProt P12644 (protein, UniProt P12644 293-408, looked up)
Bone morphogenetic protein 4: SPKHHSQRARKKNKNCRRHSLYVDFSDVGWNDWIVAPPGYQAFYCHGDCPFPLADHLNSTNHAIVQTLVNSVNSSIPKACCVPTELSAISMLYLDEYDKVVLKNYQEMVVEGCGCR
efficiency upon BMP4 subtraction (BMP4 subtraction from D1.5-2.5, in BMP4 + SCF + EGF + XAV939 + Y-27632 D0.5-3.5, readout D3.5, FIG. 5C): enhance efficiency | efficiency on BMP4 titration (BMP4 titrated to 20 ng/mL on D0.5-3.5, monolayer, readout D3.5, FIG. 5D): without significant loss in efficiency | differentiation of PGCs, BMP4 not omitted (continuous BMP4 in second phase, FIG. 5C): about 10% | differentiation of PGCs, BMP4 omitted (omitting BMP4 from the culture media for 24 hrs at day 2 of differentiation, FIG. 5C): ~30%
